# Experiment: label from the status in PepcDB records
# 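Note: failed if final PepcDB status was selected cloned or expressed and not failed if soluble or beyond.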
row,Sequence,protein production
1,MPFEDALAIVNAAMQTLLGRQLSDIETLIFEGSWQSKTYPQIADGAGYSINYLTTDVGPKFWKVLSQALGEPVNKKNFKAAIRRYCVVQSGGEWESEGFQTQLPSYPSILSWGEAPDVSQFYGREEEQALLQRWIEAERCRLIAVLGMGGIDKSTLTTKVVQGFVQGDGVEEWEGDNINIKKIQNPLQEGQSPTKFKIQHLPSSPATPFTHIIWRSLRNAPPLEALLAELIDLLSEHQETVGDRARLLHWLRKTRCLIVLDNLETILQAGDHAGYYRDGYGDYGELIQLLGETPHQSCVLLTSREKPAEIAVLEGLDGNTRTLQLSGSVATAIAIIQQKGLQGTEEQQQVLCDRYSYNPLALKIVSTTIQDLFDGDISAFLTEDAVIFNSIRRLLDAQFQRLTELEQAIIIWLAINRDWTAIAELAADLVPPVPKVKLLEALESLRWRGLIETQDKRYTLQPVVMEYVTERFIEQINQELEMGQPQYWQQFALLKLTVRDHITETQRRLIVHSTAAQFGDCFPSPELQRQQLQTVLTAIRESVIAGYGVGNLINLSNALDLDLAGFDFSQLTIRQADLRHRLFQHLNFAQANFRDSAFKQTFGSIFSLSYSPAGDYLITGDDVGVVRLWKSAEMQPMQSYPLHRSYVWDLRPSADGRWLATCSEDQTVKITNLATGQLQATLVVAPTIARAIVWIGPDCLAIGGIDGHIRLWYPFTEQAPVLVTAHTDIVNSLSWDANSNLLASSSSDSTVKLWDVETGICHRIWREAVPVRWATWSPDGHTLAISREDGGIVLWNPHSDQAPRYLNGHPETVWSLDWNPDGAWLASSSHDATVRLWDVVTGRCRRILRSHQNWVWYARWHPHQPRIISGGHDGTLKLWDTGTGQCLKSLTGHMANIRAIAPAPDGQTLALGCDDTIVRLCGADSPPSFIHAFGHSHLISDLCWNPTGENLASASHDCNLRVWQRSPLRCTQVLKGHTNWVWSVDWHPTQDLLASGSVDSTIRLWYPTQSTPVKTLMAQTSWILSVRWHPTGRWLASAAGDFTIGLWNSKTWECTHLLTGHTHWIWCLAWSPNGQYLASGGYDNTVFIWKVEKEVTSLRTLEHPTILSAIAWHPDGELLATSCHDGNIRLWHWQTGQCVTRISGHQGEILTLKFSPDGKRLYSSSQDETWKTWDWQTGTCLASDRLDRPYEGMNISEVRGLTEVRKAALRALGATEGSQPPGDLVRWLRKTEQGRKL,failed
2,MPFERFVQTGRIAKASAGPLKGRLVAIVDVIDQNRVLVDGPLTGVPRQEYRLNNLHLTKYRIKFPYTAPTRIVRKAWTESDLKAQWKVSPWSVKAQNICKRSSLNDFDRFKLRYAKRQRNKLLTIAFNTLKKRTKADGTPRVLKKDRRERLRAEKAKGGKKAAAKK,failed
3,MPFETPDLLGPSEPVPDRLSANEFLLRPLTPTDAEIDYEAVTESGDRLHGIFGPDDEWPTGLTPEQNRIDVCWHYREHQRRDAFTYGVFDPAETTELGCLYVQPTRIEGYDAAVYYWTAAAAVERGLADEIETACREWVATEWPFGRVAYPGRDVSWQAVPAAGTEGD,failed
4,MPFLFPKFWVMSAPHDTHVSRRLRRGLASACAVVTAIAAFSPAHAAPSPNKAGPMSGSTGRTTVGQLLTPAGQLTTLGDLPLNEALSPDGRYLIVSNNGQGTQSLQVIKTATGKVVQTIPYKSPESLYMGLAFSPDGTHLFASAAGNHKIRTYHFDCGKLVETSAIQMPVVSPKLTKVNLYPAGLAVTNDSKRLVVADQLADAVSVIDLATNKIQTTHIGHRPVWVTLSKDSTKAFVSSQGGADVAEVDITKSQPLATHKINVGFHPNKSVLTPDGKSLYVANGDADTISVVDVASHRQTATIPVNRNGSKLVGANPTGLALSQDGKRLYVTNSGHNEVAVINAATRKVIGDIPTGWYPTQVLAHDGKLSITSAKGLGAGPNNGPGHPNPTDPRDTAENQYSGSMIKGLLSTVNGMTQRPWPS,failed
5,MPFPSLPSPLARALTERNYAEPTPVQQAVLDAVPERDLLVSAQTGSGKTVAFGLAIAGTLLGEDETLPPPGAPLALVIAPTRELALQVQRELTWLYAQTGARIVPCVGGMDPRREARALEAGVHIVVGTPGRLRDHMERGRLVTEGLRAVILDEADEMLDMGFREDLEFILASTPKDRRTLLFSATLPKAIVALAESYQRDALRLAVAGETRGHADIVYRAVRVMPREVEHAVVNILRYVDAPVAIVFCNTRDGVRHLQASLTERGFSAVALSGELGQGERNAALQALRDGRARVCVATDVAARGIDLPGLDLVIHADLPHDAEVMQHRSGRTGRAGRKGTSVVLVPPAKRRRAEQMFAIAKVSPDWSGPPNADEIRILDRERMMSDPLLAEPETEEDREWEREWAEALMERCPPERLAAAFARLYRSRIPVPEEVSDPAYETSRRPDSRSGVPVGASRVGDDEPAAWFRLNLGRRDRAEPRRLLPMLTRRGQIGRGDIGSIRIFDNETTFEVRASAADDFAASFARRGPADVRVERMQGDGPAAAKAPKSPRAQRHRREATKTGRGG,failed
6,MPFTVTIEVSKQFETSTLPEKVFALLSDVPRSASYFPDVEKLEPLGSNAFRWIMEKNAIGGHTLKQTIYACTYRSDRVTMSVAWVPVEGEGNARVEGNWQIEFAFIQKIDRYISNLKETFAK,failed
7,MPGIDIVIVNWNSGNQLRECLRSIGNLVGEAEPLTVTVVDNASCDGSADGLPEPSCPLRVIRNRANLGFGRASNLGAREGSADYLLFLNPDTRLHPGALSIPLGFMESETGRHVGICGVQCLDETGGVARCCARFPTAWRLVGQALGLDRLFPRWIPPHFLGEWPHDSDRDVDQVIGAFFFVRRAVFEQLGGFDERFFVYYEDLDFALRARRAGWGSRYLAGARIFHRGGGVSRQISARRLHYLTHSKLRYARKHFAGIDAFLVSAAVLLLEPLARSAYALGRGRPGEFADTWKAFGGLYASLCRPGENGRLEHHHHHH,failed
8,MPGITFKEDANERGRQIEHWPLLKNGSIFVIADDGTRYFQEDAKHRHGHVYTHGSWLIPMNNQHPYLIFDQTQYDAFKQEESQAGQLPYPKFMTKLVSAPTIAQLAAKLGVPANNLQQTVTDFNHYTEVGRDFEFGRDPQTMRQLDDGPYYAIAALEHHHHHH,not failed
9,MPGPIMQEVAQYLASLSGKAVVINIFAGHADRSLSQTQLAELLDKLLARHPGSAVILLDHRREIRIPLPPEVVINPFNTLHHAMALIAQAELIISPDTSVVHMAAAWNKPLIAVYKDVLLNNRLWAPGYDNARQIIVKCGKVHQHRGLVDRIIAALPETLLEHHHHHH,failed
10,MPGPKDLDPSSSPRALLGAELRHAREKSGLSQEELGARLFVSGSFIGQLESGTRRMQPEYARLLDDVLDTEDFFRRNCTASAKSKYPEHFAQAAEAEGTAREIKEYASMLIPGLLQTPAYARAVCRAYQPTAPDDAIEELVTARMERARMLADPTGPVLWAVVDESALRRSTGGPGVMAEALRHLAHLMRENRVIVQVLPFEAGAHPAMQGCVKLMDFADAPSLVYLEGVGTGRVDDDPATVGRYRFYYELLMVAALSTTKSLSLIEKLAQNYAHGDHP,failed
11,MPGPSRKAAAWLPILVILVAMTSIQSGASLAKSLFPVVGAPGVTALRLALGTLILVVVFKPWRLRFSPAQRVPLLLYGLALGAMNYLFYLSLQRIPLGVAVALEFTGPLAVALFGSRRPLDFVWVALAILGLWYLLPLGQNVAQVDLTGALFALGAGACWAVYILTGQRAGEEHGPATVAMGSLIASLVFVPLGMAQATDTLWQWSLLPLGLGIAILSTALPYSLEMMALTRLPTRTFGTLMSLEPALAALSGMIFLGETLKLSQTLALGAIIIASMGATLTMQRQSKVEQVDIN,failed
12,MPGQSRFPLPLIAAFFALYVIWGSTYLVIRIGVEYWPPLMLGGIRFIIAGSLMYAFLRWRGVPAPTWAQWKAAGIIGVLLLSCGNGAVTLAEHSGVTSGVAALAVATVPLFTLLCGYFWGARNTRLEWAGIVLGMIGIGMLNLGSNLQSSPMGAALLLFAAAAWAFGSVWSKHLPLPQGAMASAAEMLVGGVVLMIGSALSGEHLDTLPPMEGWLALAYLAGFGSIIAFNAYMYLLKHVRPAAATSYAYVNPAVAVLLGIVFVGETIGIEEAMAMLVIISAVVLIGLPQWRKPKAAAQEEAA,failed
13,MPGSLRKMPVWLPIVILLVAMASIQGGASLAKSLFPLVGAPGVTALRLALGTLILIAFFKPWRLRFAKEQRLPLLFYGVSLGGMNYLFYLSIQTVPLGIAVALEFTGPLAVALFSSRRPVDFVWVVLAVLGLWFLLPLGQDVSHVDLTGCALALGAGACWAIYILSGQRAGAEHGPATVAIGSLIAALIFVPIGALQAGEALWHWSVIPLGLAVAILSTALPYSLEMIALTRLPTRTFGTLMSMEPALAAVSGMIFLGETLTPIQLLALGAIIAASMGSTLTVRKESKIKELDIN,failed
14,MPHLFYGTAQNGEVIFDEREAHHMRVVRLKEGDVIEATDGNGFSYTCILKSLKKKTAAAKIVKVEEKEKEPTEKLSVVVPIGRWERTRFLIEKCVELGVDEIFFHKFERSQHEISLDKAKIVVREAAKQCKRYLFPKVSFLEKLEFSGNVITLDLDASQNLLDANLEGSITVVVGPEGGFSEKERELLRSSTTIVSLGKKILRFETAAILTVGYIALKKQKI,not failed
15,MPHLNILIVRIEEFLRSIVKITSAPTYKTRVKSFNSYYLKLLKFPPKKDTSDLPVLTDILGVRIICPFLQDINEVERILLKNFKIIEVERKGSERTFREFGYESVHFLLDIPEEFKVGLVLPKNLIFEIQLRTILQDAWAEVEHELVYKSEFSPFDQPLKRKLASINASLSLADIIFQEIRDYQNKLNAELEKRRFEFYSMADEYTAQVLPETNIVQHDNVEHGEELKLAETIDDLILSAIEAHNQNLFDKAEKIYTKIIEQNPNDIVLSVVYKHRGMAYFAQANYEGAYADFLQSCKYNSANFRSFYYVGIALTLLNRDDEAIEYFTKSLEINKFQAHVYFRRALSYFKLALYPEAARDLDSASDLGLAEEDAKKLRIAIAKKIDMV,failed
16,MPHLTKAVHDYRLAAMHRLMDRLRVDALVFGSPDFFQYATNFQLDVWPWERPVFVVVPRNGETFAVMNELSTNHMRFATEKGTVWLSDVTYYAEHPRVANRLALPSQLPEVVAALLAAKGLGMSRIAVDVQHPILTGAQRYLPEMTLRPAMAEMRSLRWVKHAEELQIMRDLAALTDWVQDRYRENIRPGRLVQELDHAMAALMVEEAARRFAGEDFEIMKCWTLTGAASASPHGDGAACGSRIAKGDTIVNLVLPRLNGLYVENERTWFCGQPSDEQARFYSVAARATDAAVAAAVVGRRVCDMDAAAQAVIESAGCGDYVFHRTGHAVGLMLHEYPEDMAFNTRPLLAGEVYSSEPGLYVYGLGGFRLDDTVVVGEVPEVIVKTPKTLSYATVSL,failed
17,MPHPNRTFKIVIAPDSFKSTATTSQAAAFIAEGIQAAVQSNECEGINVEITTVPMADGGEGTSSCFEGIDITLPTTDANGRLTEATYRFDPQSETAYIDVAAASGLPAVEDELRPLTADTYGTGVLIADAQTRGARR,not failed
18,MPHQKIYLVGAGIEGWEGFGAKALEVIGKAEVLVGHKRHLDIFSDFTGKKQELGDLSILLEQLRSTDKRTVVLGSGDPNFFGIARFLLRNLPKERIEIFPNVTSVQYAFAQIKEPWDDAIFVSVHGRGLKGAVDRIVAAEKVAVLTDKTNSPAAIARELIARGAEGYEAWLCENLGLPGEKFTRTDVKGLLELPAAELNILILIKAWEPQLAQYPVIGIDDDEFATAKKLITKQEVRAVTLSKLRLQDDLVMWDIGAGSASVSIEASNLMPNGRIFALERNPQYLGFIRDNLKKFVARNVTLVEAFAPEGLDDLPDPDRVFIGGSGGMLEEIIDAVDRRLKSEGVIVLNAVTLDTLTKAVEFLEDHGYMVEVACVNVAKTKGLTEYKMFESHNPVYIITAWKSDE,failed
19,MPIEIITDSGADLPQSYIREHRIAFLPLVVHWNGQDYKDGITIEPKQVYDAMRQGHTVKTAQPSPLAMKELFLPYAKENRPCLYIAFSSKLSGTYQTAMAVRSELLDEYPEFRLTIIDSKCASLGQGLAVMKAVELAKQNTPYNLLCETIESYCRHMEHIFTVDNLDYLARGGRISKTAAAFGGLLNIKPLLHVEDGALIPLEKWRGRKKVLKRMVELMGERGDDLQKQTIGISHADDEETALELKQMIEETHGCTRFFLSDIGSAIGAHAGPGTIALFFLNKYIEI,not failed

# From a protein production outcome set (Wang et al. 2014)
